Results reported in US20260069656A1, “Nutritive Polypeptides and Formulations Thereof, and Methods of Production and Use Thereof” (Axcella Health Inc., priority 2013, published 2026).

B1: SEQID-00357: nutritive polypeptide (protein)
chain: MKPLNRRTKIVATIGPASNSREVLYQMIQAGMNVVRLNFSHGSHEQHTKTVALLKEISQELKTSITLLQDLQGPKIRVGQLPDGGIQLMAGEYITLVPIDQYESKPNTIAIDYLHLGEEAEIGAQVLLDDGLLELKVEEISGNQVKCKIIEGGTLKSRKGVNLPSLTLRLPSLTEKDQQDLEFGISLGVDWVSLSFVRNAEDVRVLKDFLASKNASQISVMAKIEKPQAIANLEEIISECNGLMVARGDLGVEMSPERVPLLQKQIIRLCNQKGIPVITATQMLDSMINNPRPTRAEASDVANAIIDGTDAVMLSGESAVGKYPIRAVEMLAKIAEDVEPEINFINYPPAFNDETHAISEAINTIDKIIDLHCIIAYTCSGYTGQLAAAERPKAPVVALTPNPKVYHRLNLVWGVKPLLLEQEVESFEELINQAQTYLLVRQMASPGDKILIIGGIPSGKAKGTNFIKIHTIG
modifications: Arthrospira platensis NIES-39
B2: SEQID-00356: nutritive polypeptide (protein)
chain: MATAAEKLSALKSAVAGLNEISENEKNGFISLVGRYLSGEAQHVEWSKIQTPTDEVVVPYDTLAPTPEGSSEVKNLLDKLVVLKLNGGLGTTMGCTGPKSVIEVRDGLTFLDLIVIQIENLNSKYGSNVPLLLMNSFNTHDDTQKIVEKYQNSNIEIHTFNQSQYPRLVVEDFLPLPSKGHTDKDGWYPPGHGDVFPSLLNSGKLDALLSQGKEYVFVANSDNLGAIVDLKILNHLIQNKNEYCMEVTPKTLADVKGGTLISYEGRVQLLEIAQVPDEHVNEFKSIEKFKIFNTNNLWVNLNAVKRLVEADALKMEIIPNPKEVDGIKVLQLETAAGAAIRFFDKAIGINVPRSRFLPVKATSDLLLVQSDLYTLEDGFVIRNKARENPENPSIELGPEFKKVSNFLGRFKSIPSIVELDSLKVAGDVWFGAGVILKGKVSIVSKPGVKLEVPDGVAIVDKEINGPEDL
modifications: Glycine max
B3: SEQID-00338 (BS): nutritive polypeptide (protein, listed as Saccharomyces cerevisiae)
chain: MSSSESIRMVLIGPPGAGKGTQAPNLQERFHAAHLATGDMLRSQIAKGTQLGLEAKKIMDQGGLVSDDIMVNMIKDELTNNPACKNGFILDGFPRTIPQAEKLDQMLKEQGTPLEKAIELKVDDELLVARITGRLIHPASGRSYHKIFNPPKEDMKDDVTGEALVQRSDDNADALKKRLAAYHAQTEPIVDFYKKTGIWAGVDASQPPATVWADILNKLGKD
modifications: strain ATCC 204508 / S288c
B4: SEQID-00407 (BS): a-amylase in Bacillus subtilis (amyE); Wild-type of Tables E37A and E38E (protein, listed as Bacillus subtilis)
chain: ETANKSNELTAPSIKSGTILHAWNWSFNTLKHNMKDIHDAGYTAIQTSPINQVKEGNQGDKSMSNWYWLYQPTSYQIGNRYLGTEQEFKEMCAAAEEYGIKVIVDAVINHTTSDYAAISNEVKSIPNWTHGNTQIKNWSDRWDVTQNSLLGLYDWNTQNTQVQSYLKRFLDRALNDGADGFRFDAAKHIELPDDGSYGSQFWPNITNTSAEFQYGEILQDSASRDAAYANYMDVTASNYGHSIRSALKNRNLGVSNISHYASDVSADKLVTWVESHDTYANDDEESTWMSDDDIRLGWAVIASRSGSTPLFFSRPEGGGNGVRFPGKSQIGDRGSALFEDQAITAVNRFHNVMAGQPEELSNPNGNNQIFMNQRGSHGVVLANAGSSSVSINTATKLPDGRYDNKAGAGSFQVNDGKLTGTINARSVAVLYPDDIAKAPHVFLENYKTGVTHSFNDQLTITLRADANTTKAVYQINNGPETAFKDGDQFTIGKGDPFGKTYTIMLKGTNSDGVTRTEKYSFVKRDPASAKTIGYQNPNHWSQVNAYIYKHDGSRVIELTGSWPGKPMTKNADGIYTLTLPADTDTTNAKVIFNNGSAQVPGQNQPGFDYVLNGLYNDSGLSGSLPH
modifications: strain 168
B5: SEQID-00359: nutritive polypeptide naturally produced in Sheep, recombinantly expressed in E. coli (protein)
chain: MLELGSQRNRAKNNHIGDLMSQSFESLGISEQRARHLETLGFTEPTPVQIQAIPEMLSGRDVVGMAQTGTGKTAAFSLPILEQIDVHAAGIQALVLTPTRELAMQVKEAIRTFSDDNALYVLTVYGGQSIDRQIQRLRRGVQVVVGTPGRILDLLNRGELKLDLLRWLVLDEADEMLSMGFIQDVEKILESADSEHRQTAFFSATMDASISKLVRRHLKSPVTVKVETPKATPKRIEQSVYMVPRGWSKARALEPILELEDPESAIIFVRTKQSAADLTNQLQAAGHSVDEYHGNLNQSQRERLLMRLRRRQVRWIVATDIAARGLDVDHLTHVINYDLPDQVDSYVHRIGRTGRAGREGKAITLIQPIDRRKLRNIERHLRQTLSIQSIPKRAEIEARYIDRLKDRVRDALAGERMASFLPIVSQLSEEYDPHAIAAAALQLAYDQTRPASIGRDDYEDDDDAVSNKPKLIKRRRPASVSNNS
modifications: Arthrospira platensis NIES-39
B6: SEQID-00343: nutritive polypeptide (protein)
chain: MATLIAPSHHSRVEDAEALRNAFKGWGADDKAIIAILGHRNVHQRQEIRKAYEEIYQEDLIKRLESEISGDFERAMYRWMLQPADRDAVLVNVAIKNGTKDYHVIAEIACVLSAEELLAVRRAYHRRYKCSLEEDVAANTTGNLRQLLVGLVTSYRYEGDEINVKFSQTEANVLHESVKEKKGNSEEVIRILTTRSKTQLVATFNRYRDEHGISISKKLLDQTSDDFHKVLHTAIRCINDHKKYYEKVLRNAVKKFGTDEDGLSRVIVTRAEKDLKDIKELYYKRNSVHLEDEVSKETSGDYKKFLLTLLGK
modifications: Glycine max
B7: SEQID-00284: nutritive polypeptide (protein, listed as Arabidopsis thaliana)
chain: KLEHGVHVVSGTPGRVCDMIKRRSLRTRAIKLLILDESDEMLSRGFKDQIYDVYRYLPPDLQVCLVSATLPHEILEMTSKFMTEPVKILVKRDELTLEGIKQFFVAVEKEEWK
B8: SEQID-00354: nutritive polypeptide (protein)
chain: MSLSNKLTLDKLDVKGKRVVMRVDFNVPMKNNQITNNQRIKAAVPSIKYCLDSGAKSVVLMSHLGRPDGVPMPDKYSLQPVAVELKSLLGKDVLFLKDCVGPEVEKACADPAAGSVILLENLRFHVEEEGKGKDASGNKVKAEPTKIEAFRASLSKLGDVYVNDAFGTAHRAHSSMVGVNLPKKAGGFLMKKELNYFAKALESPERPFLAILGGAKVADKIQLISNMLDKVNEMIIGGGMAFTFLKVLNNMEIGTSLFDEEGSKIVKDLMSKADKNGVKITLPVDFVTADKFDENAKTGQATVASGIPVGWMGLDCGPESSKKYAEAVARAKQIVWNGPVGVFEWEAFARGTKALMDEVVKATSRGCITIIGGGDTATCCAKWNTEDKVSHVSTGGGASLELLEGKVLPGVDALSSV
modifications: Ovis aries
B9: SEQID-00363 (E. coli): nutritive polypeptide (protein)
chain: ATLDSWLSNEATVARTAILNNIGADGAWVSGADSGIVVASPSTDNPDYFYTWTRDSGLVLKTLVDLFRNGDTSLLSTIENYISAQAIVQGISNPSGDLSSGAGLGEPKFNVDETAYTGSWGRPQRDGPALRATAMIGFGQWLLDNGYTSTATDIVWPLVRNDLSYVAQYWNQTGYDLWEEVNGSSFFTIAVQHRALVEGSAFATAVGSSCSWCDSQAPEILCYLQSFWTGSFILANFDSSRSGKDANTLLGSIHTFDPEAACDDSTFQPCSPRALANHKEVVDSFRSIYTLNDGLSDSEAVAVGRYPEDTYYNGNPWFLCTLAAAEQLYDALYQWDKQGSLEVTDVSLDFFKALYSDAATGTYSSSSSTYSSIVDAVKTFADGFVSIVETHAASNGSMSEQYDKSDGEQLSARDLTWSYAALLTANNRRNSVVPASWGETSASSVPGTCAATSAIGTYSSVTVTSWPSIVATGGTTTTATPTGSGSVTSTSKTTATASKTSTSTSSTSCTTPTAVAVTFDLTATTTYGENIYLVGSISQLGDWETSDGIALSADKYTSSDPLWYVTVTLPAGESFEYKFIRIESDDSVEWESDPNREYTVPQACGTSTATVTDTWR
modifications: Aspergillus niger
B10: SEQID-00345: nutritive polypeptide (protein)
chain: MNTLDLQNQRILVTGGAGFLGKQVIDQLLKAGAKSENISVPRSHNCDLRNLEACQQAAKGQDIIIHLAAHVGGIGLNQVKPAELFYDNLMMGTQLIHSAYQAGVKKFVCVGTICAYPKFTPVPFQEDDLWNGYPEETNAPYGIAKKALLVQLQAYRQQYGFNGIYLLPVNLYGPEDNFNPKSSHVIPALVRKVYEAQQRGDKQLPVWGDGSPSREFLYSTDAARGIVMATQHYDEPDPVNLGTNSEVTIRDLVELICELMEFQGEIVWETDKPNGQPRRCLDTNRAKERFGFVAEVEFRQGLKNTIDWYRQNPDL
modifications: Arthrospira platensis NIES-39
B11: SEQID-00298 (AN): nutritive polypeptide naturally produced in Cow (protein, listed as Bos taurus)
chain: MGLSDGEWQLVLNAWGKVEADVAGHGQEVLIRLFTGHPETLEKFDKFKHLKTEAEMKASEDLKKHGNTVLTALGGILKKKGHHEAEVKHLAESHANKHKIPVKYLEFISDAIIHVLHAKHPSDFGADAQAAMSKALELFRNDMAAQYKVLGFHG
B12: SEQID-00298 (BS): nutritive polypeptide naturally produced in Cow (protein, listed as Bos taurus)
chain: MGLSDGEWQLVLNAWGKVEADVAGHGQEVLIRLFTGHPETLEKFDKFKHLKTEAEMKASEDLKKHGNTVLTALGGILKKKGHHEAEVKHLAESHANKHKIPVKYLEFISDAIIHVLHAKHPSDFGADAQAAMSKALELFRNDMAAQYKVLGFHG
B13: SEQID-00346: nutritive polypeptide (protein)
chain: MYYDADANLDLLAGKTIAIVGYGSQGHAHALNLKDSGMNVIVGLYPGSKSATKAKDAGLTVYPVDEAAKIADLIMILLPDEVQKTVYKNEIEPNLSEGKTLAFAHGFNIHFGQVVPPENVDVIMVAPKGPGHLVRRTYQEGQGVPCLFAVYQDASGQARDRAMAYAKGIGGTRGGILETTFREETETDLFGEQAVLCGGLSALIKAGFETLVEAGYQPELAYFECLHEVKLIVDLVVEGGLAQMRDSISNTAEYGDYTRGPRVITDATRAEMRKILKEIQTGQFAREFVLENQSGKAGFTAMRRQEAEHPIEEVGHDLRAMFSWLKKKA
modifications: Arthrospira platensis NIES-39

Experiment: Intact half-life during simulated gastric fluid (SGF) digestion
Settings: SGF pH 1.5, pepsin:polypeptide 1:20 w/w, 37° C.; produced in E. coli unless otherwise noted
Description: Nutritive polypeptide half-life during simulated digestion. One metric for quantifying the breakdown of polypeptides from an intact form to smaller peptides is the intact half-life. In this experiment the nutritive polypeptide was exposed to a series of proteases that are active in the stomach (pepsin) and intestine (trypsin and chymotrypsin), and the presence of intact protein was measured over time. Specifically, the nutritive polypeptide was first treated at a concentration of 2 g/L with simulated gastric fluid (SGF) (0.03 M NaCl, titrated with HCl to pH 1.5 with a final pepsin: polypeptide ratio of 1:20 w/w) at 37° C. Time points were sampled from the reaction and quenched by addition of 0.2 M Na2CO3. […] Time points were sampled from the reaction and quenched by addition of Trypsin/Chymotrypsin Inhibitor (Sigma) solution until 240 min.
Time point samples were analyzed for intact protein by chip electrophoresis, polyacrylamide gel electrophoresis, or western blot. For chip electrophoresis (Labchip GX II), samples were analyzed using a HT Low MW Protein Express LabChip® Kit (following the manufacturer's protocol). A protein ladder was loaded every 12 samples for molecular weight determination (kDa) and quantification. For polyacrylamide gel electrophoresis, samples (1 μg) were separated on a NuPAGE® Novex® Bis-Tris Precast gel (Life Technologies) according to the manufacturer's protocol. The gel was stained using SimplyBlue™ SafeStain (Invitrogen) and imaged using a Chemidoc XRS+ (BioRad) or transferred onto nitrocellulose membranes using the iBlot® Dry Blotting System (Life Technologies) and iBlot® Western Detection Kit (Life Technologies) according to the manufacturer's protocol. Proteins were detected by blotting with Anti-His [C-term]-HRP antibody diluted 3:5000 in Blok™-PO Blocking Buffer using the SNAP i.d.® Protein Detection System (Millipore) according to the manufacturer's protocol. Blots were treated with Luminata Classico Western HRP Substrate (Millipore) according to the manufacturer's protocol and imaged using chemiluminescent detection on the Molecular Imager® Gel Doc™ XR+ System (Bio-Rad). Quantification of intact protein was determined by densitometry using ImageLab (BioRad). For all analysis methods the relative concentration of the polypeptide at each time point (if detected) was plotted overtime and fit to an exponential curve to calculate the intact half-life.
Specifically, the t=0 (enzyme-free control) and t=2 min samples from the SGF digest were analyzed for intact protein as described by chip electrophoresis, SDS-PAGE, western blot, and/or LC-MS/MS. Relative quantities of polypeptides at each time point were determined and the percentage of intact protein remaining at t=2 was determined.
In the case of B1, the “SGF Half-life (t½)” value is reported as 12 s. In the case of B2, the “SGF Half-life (t½)” value is reported as 12 s. With B3 the “SGF Half-life (t½)” value was 12 s. In the case of B4, the “SGF Half-life (t½)” value is reported as 12 s. With B5 the “SGF Half-life (t½)” value was 12 s. In the case of B6, the “SGF Half-life (t½)” value is reported as 18 s. For B7, the “SGF Half-life (t½)” value was 60 s. With B8 the “SGF Half-life (t½)” value was 12 s. For B9, the “SGF Half-life (t½)” value was less than 600 s. With B10 the “SGF Half-life (t½)” value was 48 s. For B11, the “SGF Half-life (t½)” value was 18 s. With B12 the “SGF Half-life (t½)” value was 6 s. With B13 the “SGF Half-life (t½)” value was 12 s.
